This note sets out measurements from patent US20170081672.

The subject of data set [1] is ALS2_T1 TALE-nuclease left subunit. In words: cell_activity. Conditions: yeast beta-galactosidase reporter, 37 C, as pair with right subunit; SD or SE 0.02; 0.86 (0.02) at 30 C; NHEJ in N. benthamiana protoplasts 70.68% (DNA, no UTR).
For data set [2], the system named is ALS2_T1 TALE-nuclease right subunit. As to the kind of experiment: cell_activity. Conditions: yeast beta-galactosidase reporter, 37 C, as pair with left subunit; SD or SE 0.02; 0.86 (0.02) at 30 C; NHEJ in N. benthamiana protoplasts 70.68% (DNA, no …).

In data set [1], “TAGCTTGTTCCACATTT (double strand) [ALS2_T1 left target half-site]” had an activity (relative to I-SceI (max 1.0)) of 0.97.

The sequence “TGTCATGCTGGGTCAG (double strand) [ALS2_T1 right target half-site]” yielded an activity (relative to I-SceI (max 1.0)) in data set [2] of 0.97.
